Laboratory results as given in US20250000946A1 (WUXI BIOLOGICS IRELAND, published 2025).
Changes are numbered by the printed parent chain. In names and notes the source's numbering stands. Like-named read-outs stand apart in the source and are kept apart here.

T1: Human IL-2Rα/β/γ complex (high affinity IL-2 receptor) (human, UniProt P01589 22-272; P14784 27-551; P31785 23-369)
T1 sequence (looked up) 1: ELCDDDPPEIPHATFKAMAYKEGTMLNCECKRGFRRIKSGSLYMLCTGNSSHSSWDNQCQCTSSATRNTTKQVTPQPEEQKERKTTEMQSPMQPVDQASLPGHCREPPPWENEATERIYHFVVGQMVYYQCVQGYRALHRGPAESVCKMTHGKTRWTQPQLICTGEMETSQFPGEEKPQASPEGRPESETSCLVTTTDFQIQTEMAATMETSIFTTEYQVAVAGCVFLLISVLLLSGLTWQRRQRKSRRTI
T1 sequence (looked up) 2: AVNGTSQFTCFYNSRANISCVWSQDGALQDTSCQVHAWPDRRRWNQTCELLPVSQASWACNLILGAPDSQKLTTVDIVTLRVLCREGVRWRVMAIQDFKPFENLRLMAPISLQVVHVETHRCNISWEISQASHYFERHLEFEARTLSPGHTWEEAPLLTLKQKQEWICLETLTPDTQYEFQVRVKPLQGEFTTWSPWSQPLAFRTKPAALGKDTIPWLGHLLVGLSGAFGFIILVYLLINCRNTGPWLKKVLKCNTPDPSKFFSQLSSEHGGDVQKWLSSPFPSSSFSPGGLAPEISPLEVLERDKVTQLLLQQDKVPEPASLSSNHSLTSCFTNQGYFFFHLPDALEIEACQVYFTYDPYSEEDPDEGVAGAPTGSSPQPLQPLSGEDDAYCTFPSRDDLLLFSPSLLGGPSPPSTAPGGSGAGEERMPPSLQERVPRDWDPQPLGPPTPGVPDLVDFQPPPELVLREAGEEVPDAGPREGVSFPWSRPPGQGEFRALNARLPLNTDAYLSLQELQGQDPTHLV
T1 sequence (looked up) 3: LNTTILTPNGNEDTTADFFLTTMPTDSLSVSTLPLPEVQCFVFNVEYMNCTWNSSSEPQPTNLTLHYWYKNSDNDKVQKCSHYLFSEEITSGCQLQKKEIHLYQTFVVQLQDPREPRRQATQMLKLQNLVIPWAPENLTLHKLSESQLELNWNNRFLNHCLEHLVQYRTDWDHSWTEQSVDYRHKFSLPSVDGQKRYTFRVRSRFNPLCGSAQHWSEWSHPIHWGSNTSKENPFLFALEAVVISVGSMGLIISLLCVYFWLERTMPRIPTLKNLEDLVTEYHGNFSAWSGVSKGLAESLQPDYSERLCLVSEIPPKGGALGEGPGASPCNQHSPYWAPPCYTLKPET

T2: Human IL-2Rβ/γ (intermediate affinity IL-2 receptor) (human, UniProt P14784 27-551; P31785 23-369)
T2 sequence (looked up) 1: T1 sequence (looked up) 2
T2 sequence (looked up) 2: T1 sequence (looked up) 3

B1: W3XX115-T2U0.E44-26.uIgG4V1 (Fc fusion)
chain: APTSSSTKKTQLQLEHLLLDLQMILNGINNYKNPKLTRMLTFKFYMPKKATELKHLQCLEEELKPLEEVLNLAQSKNFHLRPRDLISNINVIVLELKGSETTFMCEYADETATIVEFLNRWITFCQSILESKYGPPCPPCPAPEFLGGPSVFLFPPKPKDTLMISRTPEVTCVVVDVSQEDPEVQFNWYVDGVEVHNAKTKPREEQFNSTYRVVSVLTVLHQDWLNGKEYKCKVSNKGLPSSIEKTISKAKGQPREPQVYTLPPCQEEMTKNQVSLWCLVKGFYPSDIAVEWESNGQPENNYKTTPPVLDSDGSFFLYSRLTVDKSRWQEGNVFSCSVMHEALHNHYTQKSLSLSLG
heavy: EIQLQQSGPELVKPGASVKVSCKASGYSFTDYNMYWVKQSHGESLEWIGYIDPYNGGTRYNQKFKGKATLTVDKSSSTAFMHLNSLTSEDSAVYYCARNGHWDGAWFAYWGQGTLVTVSAASTKGPSVFPLAPCSRSTSESTAALGCLVKDYFPEPVTVSWNSGALTSGVHTFPAVLQSSGLYSLSSVVTVPSSSLGTKTYTCNVDHKPSNTKVDKRVESKYGPPCPPCPAPEFLGGPSVFLFPPKPKDTLMISRTPEVTCVVVDVSQEDPEVQFNWYVDGVEVHNAKTKPREEQFNSTYRVVSVLTVLHQDWLNGKEYKCKVSNKGLPSSIEKTISKAKGQPREPQVCTLPPSQEEMTKNQVSLSCAVKGFYPSDIAVEWESNGQPENNYKTTPPVLDSDGSFFLVSRLTVDKSRWQEGNVFSCSVMHEALHNHYTQKSLSLSLG
light: DIQMNQSPSSLSASLGDTITITCHASQNINVWLSWYQQKPGNIPKLLIYKASNLHTGVPSRFSGSRSGTGFTLTISSLQPEDIATYYCHQGQSYPFTFGSGTKLEIKRTVAAPSVFIFPPSDEQLKSGTASVVCLLNNFYPREAKVQWKVDNALQSGNSQESVTEQDSKDSTYSLSSTLTLSKADYEKHKVYACEVTHQGLSSPVTKSFNRGEC
notes: IL-2 del STLT and I129L; E44 format, IgG4
B2: W3XX115-T2U0.E44-9.uIgG4V1 (Fc fusion)
chain: APTSSSTKKTQLQLEHLLLDLQMILNGINNYKNPKLTRMLTFKFYMPKKATELKHLQCLEEELKPLEEVLNLAQSKNFHLRPRDLISNINVIVLELKGSETTFMCEYADETATIVEFLNRWITFCQESKYGPPCPPCPAPEFLGGPSVFLFPPKPKDTLMISRTPEVTCVVVDVSQEDPEVQFNWYVDGVEVHNAKTKPREEQFNSTYRVVSVLTVLHQDWLNGKEYKCKVSNKGLPSSIEKTISKAKGQPREPQVYTLPPCQEEMTKNQVSLWCLVKGFYPSDIAVEWESNGQPENNYKTTPPVLDSDGSFFLYSRLTVDKSRWQEGNVFSCSVMHEALHNHYTQKSLSLSLG
heavy: B1 heavy
light: B1 light
notes: IL-2 with C-terminal 7 aa (SIISTLT) deleted; E44 format, IgG4
B3: W3XX115-T2U0.E44-5.uIgG4V1 (Fc fusion)
chain: APTSSSTKKTQLQLEHLLLDLQMILNGINNYKNPKLTRMLTFKFYMPKKATELKHLQCLEEELKPLEEVLNLAQSKNFHLRPRDLISNINVIVLELKGSETTFMCEYADETATIVEFLNRWITFCQSIISESKYGPPCPPCPAPEFLGGPSVFLFPPKPKDTLMISRTPEVTCVVVDVSQEDPEVQFNWYVDGVEVHNAKTKPREEQFNSTYRVVSVLTVLHQDWLNGKEYKCKVSNKGLPSSIEKTISKAKGQPREPQVYTLPPCQEEMTKNQVSLWCLVKGFYPSDIAVEWESNGQPENNYKTTPPVLDSDGSFFLYSRLTVDKSRWQEGNVFSCSVMHEALHNHYTQKSLSLSLG
heavy: B1 heavy
light: B1 light
notes: IL-2 with C-terminal 3 aa (TLT) deleted; E44 format, IgG4
B4: W3XX115-T2U0.E44-28.uIgG4V1 (Fc fusion)
chain: B1 chain with L129A
heavy: B1 heavy
light: B1 light
notes: IL-2 del STLT and I129A; E44 format, IgG4
B5: W3XX115-T2U0.E44-30.uIgG4V1 (Fc fusion)
chain: B1 chain with L129T
heavy: B1 heavy
light: B1 light
notes: IL-2 del STLT and I129T; E44 format, IgG4
B6: W3XX115-T2U0.E44-27.uIgG4V1 (Fc fusion)
chain: B1 chain with L129V
heavy: B1 heavy
light: B1 light
notes: IL-2 del STLT and I129V; E44 format, IgG4
B7: W3XX115-T2U0.E44-29.uIgG4V1 (Fc fusion)
chain: B1 chain with L129S
heavy: B1 heavy
light: B1 light
notes: IL-2 del STLT and I129S; E44 format, IgG4

Tests used:
[1] = molecular target: T1, Human IL-2Rα/β/γ complex (high affinity …); assay: cell-based or functional assay
[2] = molecular target: T2, Human IL-2Rβ/γ (intermediate affinity …); assay: cell-based or functional assay
[3] = molecular target: T2, Human IL-2Rβ/γ (intermediate affinity …); assay: FACS, HH cells; EC50 fold vs T2U0.E44-1
Method: (§1) Human cutaneous T cell lymphoma HH cells, malignant non-Hodgkin's lymphoma NK92 cells and cutaneous T cell lymphoma MJ20 cells were used for binding assay. They both constitutively express IL-2Rβ (CD122) and […] (CD132), and NK92 and MJ20 also expresses IL-2Rα (CD25). HH, NK92 and MJ20 cells were cultured following ATCC guidance, then transferred to a 96-plate for binding analysis. Cells were incubated with IL-2/Fc fusion proteins at the indicated concentrations for 30 min at 4° C. to avoid internalization. Binding was detected by 2nd antibody of PE-anti-human Fc at 4° C. for another 30 min. The median fluorescence intensity (MFI) on HH and NK92 cells was measured using FACS.

[4] = molecular target: T2, Human IL-2Rβ/γ (intermediate affinity …); assay: FACS, HH cells
Method: as §1

[5] = molecular target: T1, Human IL-2Rα/β/γ complex (high affinity …); assay: FACS, MJ20 cells; EC50 fold vs T2U0.E44-1
Method: as §1
(§2) Affinity of IL-2 variants to IL-2Rα/β/γ supported the same results (FIG. 8 and Table 7). […] And T2U0.E44-26, T2U0.E44-27, T2U0.E44-29 and T2U0.E44-30 induced hundreds to thousands affinity reduction in Treg compared to T2U0.E44-1. Binding curves in MJ20 cells (IL-2Rα/β/γ) also achieved similar trend (FIG. 8b). As a result, the method of C-terminal truncation and substitution of 129 was available to achieve IL-2Rβγ attenuated IL-2 variants.

[6] = molecular target: T1, Human IL-2Rα/β/γ complex (high affinity …); assay: FACS, MJ20 cells
Method: as §1, §2

[7] = molecular target: T2, Human IL-2Rβ/γ (intermediate affinity …); assay: FACS, HH cells; remark: listed apart in the source
Method: as §1

[8] = molecular target: T1, Human IL-2Rα/β/γ complex (high affinity …); assay: cell-based or functional assay; remark: listed apart in the source
[9] = molecular target: T2, Human IL-2Rβ/γ (intermediate affinity …); assay: cell-based or functional assay; remark: listed apart in the source
[10] = molecular target: T1, Human IL-2Rα/β/γ complex (high affinity …); assay: FACS, NK92 cells
Method: as §1

[11] = molecular target: T2, Human IL-2Rβ/γ (intermediate affinity …); assay: FACS, HH cells; EC50 fold vs T2U0.E44-1; remark: listed apart in the source
Method: as §1

[12] = molecular target: T1, Human IL-2Rα/β/γ complex (high affinity …); assay: FACS, NK92 cells; EC50 fold vs T2U0.E44-1
Method: as §1

Binder | Potency in human Treg EC50 [1] [nM] | Potency reduction (Treg) [1] [fold] | Potency in human CD8+ T EC50 [2] [nM] | Potency reduction (CD8+ T) [2] [fold] | Affinity reduction [3] [fold] | EC50 [4] [nM] | Affinity reduction [5] [fold] | EC50 [6] [nM] | EC50 [7] [nM] | Potency in human Treg EC50 [8] [nM] | Potency reduction (Treg) [8] [fold] | Potency in human CD8+ T EC50 [9] [nM] | Potency reduction (CD8+ T) [9] [fold] | EC50 [10] [nM] | Affinity reduction [11] [fold] | Affinity reduction [12] [fold]
B1 | 1.16 | 460 | 649 | 32.5 | 18.5 | 993 | 3.1 | 42.8 | – | – | – | – | – | – | – | –
B2 | – | – | – | – | – | – | – | – | 54.5 | 1.44 | 55.6 | 96.5 | 10.1 | 8.52 | 1.76 | 1.55
B3 | – | – | – | – | – | – | – | – | 50.1 | 4.62 | 179 | 18 | 1.89 | 14.5 | 1.62 | 2.63
B4 | 0.095 | 37.6 | 446 | 22.3 | 15.6 | 839 | 7.4 | 103 | – | – | – | – | – | – | – | –
B5 | 2.64 | 1050 | 493 | 24.7 | – | – | 13 | 183 | – | – | – | – | – | – | – | –
B6 | 1.85 | 737 | 371 | 18.5 | 51.1 | 2740 | 5.4 | 75.3 | – | – | – | – | – | – | – | –
B7 | 3.76 | 1490 | 406 | 20.3 | 28.8 | 1550 | 17 | 233 | – | – | – | – | – | – | – | –
